In patent US20170166895:

Molecular target: Complement component 3 (C3) (Homo sapiens) (UniProt P01024+P01024)
Assay: filter
Settings: 3'-3' idT
[1] = all U in listing = NapdU, SB18T0.01, 37C
[2] = all P = NapdU, 2'-OMe at 1,2,3,5,7,9,10,13,19,20,22-28, C3-spacer replaces C17, SB18T0.01, 37C
[3] = all U = NapdU, T = dT, SB18T0.01, 37C

Sequence of Complement component 3 (C3) (Homo sapiens) (P01024 23-667, chain 1 of 2): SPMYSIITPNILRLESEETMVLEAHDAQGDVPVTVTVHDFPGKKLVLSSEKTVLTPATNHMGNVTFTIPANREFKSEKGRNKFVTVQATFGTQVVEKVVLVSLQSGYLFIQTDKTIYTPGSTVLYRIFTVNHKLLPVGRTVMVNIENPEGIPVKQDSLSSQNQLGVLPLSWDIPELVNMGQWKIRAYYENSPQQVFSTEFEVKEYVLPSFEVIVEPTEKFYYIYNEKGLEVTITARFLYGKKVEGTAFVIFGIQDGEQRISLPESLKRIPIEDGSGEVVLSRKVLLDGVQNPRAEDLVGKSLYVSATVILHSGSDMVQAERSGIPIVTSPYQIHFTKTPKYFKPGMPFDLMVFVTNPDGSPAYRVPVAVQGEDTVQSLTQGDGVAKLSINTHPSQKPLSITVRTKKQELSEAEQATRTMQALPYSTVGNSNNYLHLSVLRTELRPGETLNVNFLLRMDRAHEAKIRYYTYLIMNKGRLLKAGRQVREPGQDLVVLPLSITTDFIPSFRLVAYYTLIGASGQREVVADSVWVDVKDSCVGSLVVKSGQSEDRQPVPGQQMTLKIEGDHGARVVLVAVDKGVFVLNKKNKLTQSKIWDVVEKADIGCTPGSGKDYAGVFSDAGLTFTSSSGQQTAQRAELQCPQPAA
Sequence of Complement component 3 (C3) (Homo sapiens) (P01024 672-1663, chain 2 of 2): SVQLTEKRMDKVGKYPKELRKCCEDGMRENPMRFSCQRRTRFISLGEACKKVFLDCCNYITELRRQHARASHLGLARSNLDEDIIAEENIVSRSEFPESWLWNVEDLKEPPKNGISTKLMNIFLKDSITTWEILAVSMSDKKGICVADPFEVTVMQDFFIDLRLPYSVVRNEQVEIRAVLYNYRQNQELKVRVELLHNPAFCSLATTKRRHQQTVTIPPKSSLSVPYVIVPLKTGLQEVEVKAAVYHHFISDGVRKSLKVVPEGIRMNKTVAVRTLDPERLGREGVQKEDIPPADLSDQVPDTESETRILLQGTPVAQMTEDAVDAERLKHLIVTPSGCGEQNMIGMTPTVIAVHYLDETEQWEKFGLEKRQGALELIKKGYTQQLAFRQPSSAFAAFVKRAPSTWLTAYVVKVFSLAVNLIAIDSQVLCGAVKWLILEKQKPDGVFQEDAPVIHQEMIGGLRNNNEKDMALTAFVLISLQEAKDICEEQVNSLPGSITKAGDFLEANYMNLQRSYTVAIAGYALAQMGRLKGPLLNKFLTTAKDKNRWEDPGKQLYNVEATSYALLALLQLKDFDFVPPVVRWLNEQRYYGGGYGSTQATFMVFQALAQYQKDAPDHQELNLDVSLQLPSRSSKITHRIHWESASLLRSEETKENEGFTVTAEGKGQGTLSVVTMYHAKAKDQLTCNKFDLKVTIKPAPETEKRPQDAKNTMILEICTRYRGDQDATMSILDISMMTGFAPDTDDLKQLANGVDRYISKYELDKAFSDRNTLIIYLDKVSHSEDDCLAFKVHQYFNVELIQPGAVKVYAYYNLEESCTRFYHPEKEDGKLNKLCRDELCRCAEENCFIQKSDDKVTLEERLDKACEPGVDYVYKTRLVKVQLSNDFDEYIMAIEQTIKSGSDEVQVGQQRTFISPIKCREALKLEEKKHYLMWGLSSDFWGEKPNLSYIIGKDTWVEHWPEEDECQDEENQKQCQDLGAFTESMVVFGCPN

In the case of “CCGGUGACUCAAUAGUCCGUACGUUCCC [8491-94_28]”, the Kd (all U = NapdU, printed as 2.65-10, SB18T0.01, 37C) is reported as 0.265 nM.

With “ACTCCACGGUGACUCCAUAGUCCGUACGUUCCCGCGGACGCACCGAGGA [8491-388_3]” the Kd [1] was 0.71 nM.

For “CCGGUGACUCAAUAGUCCGUACGUUCCCGGUCCGAACGCGGAGGA [8491-94_23]”, the Kd (all U = NapdU, SB18T0.01, 37C) was 0.0621 nM.

“ACTCCGAGCAUUGACUCAAUAGUCCGUACGUUUGGCCCGUUCACAAGGAGGA [8491-393_3]” showed a Kd [1] of 0.25 nM.

“GGGUGACUCAAUAGUCGUACGUUCCCC [8491-94_134]” was tested, and the Kd [2] was 0.107 nM.

“CGGUGACUCAAUAGUCCGUACGUUCCCG [8491-94_61]” was tested, and the Kd (P = NapdU (all U), 2'-OMe G3, SB18T0.01, 5 mM MgCl2, 37 C) was 0.0237 nM.

“ACTCCCCGGUGACUCAAUAGUCCGUACGUUCCCGG [8491-94_19]” was tested, and the Kd (all U = NapdU, SB18T0.01, 37C) was 0.0559 nM.

Work on “CGGUGACUCAAUAGUCCGUACGUUCCCG [8491-94_101]” yielded a Kd (all U = NapdU, 2'-OMe at 1,2,3,5,7,9,10,13,20,22,25-28, SB18T0.01, 37C) of 0.219 nM.

Sequence “ACTCCCAAGCCUCUCGGUUUGGCUAAAUAGUCCGUACGUUUUCACGAGGA [8491-408_3]” has a Kd [1] of 0.161 nM.

“UGACUCAAUAGUCCGUACGUUCCCGGUCCGAACGCGGAGGA [8491-94_10]” showed a Kd (all U = NapdU, SB18T0.01, 37C) of 7.6 nM.

“ACTCCGAGCUUUUUUGACUCAAUUAGUCCGUACGUUUUUUGGCCGGGCAGGGGAGGA [8491-404_3]” was tested, and the Kd [1] was 0.185 nM.

For “CGGUGACUCAAUAGUCCGUACGUUCCCG [8491-94_71]”, the Kd (P = NapdU (all U), 2'-OMe A13, SB18T0.01, 5 mM MgCl2, 37 C) was 0.0256 nM.

In the case of “CGGUGACUCAAUAGUCCGUACGUUCCCG [8491-94_62]”, the Kd (P = NapdU (all U), 2'-OMe P4, SB18T0.01, 5 mM MgCl2, 37 C) is reported as 0.0918 nM.

For “CGGUGACUCAAUAGUCCGUACGUUCCCG [8491-94_68]”, the Kd (P = NapdU (all U), 2'-OMe A10, SB18T0.01, 5 mM MgCl2, 37 C) was 0.0424 nM.

With “ACTCCCCGGUGACUCAAUAGUCCGUACGUTCCCGGUCCGAACGCGGAGGA [8491-94_17]” the Kd [3] was 2.88 nM.

In the case of “ACTCCCCGGTGACUCAAUAGUCCGUACGUUCCCGGUCCGAACGCGGAGGA [8491-94_11]”, the Kd [3] is reported as 29.5 nM.

In the case of “CGGUGACUCAAUAGUCCGUACGUUCCCG [8491-94_66]”, the Kd (all U = NapdU, 2'-OMe at NapdU8, SB18T0.01, 37C) is reported as 0.149 nM.

In the case of “CGGUGACUCAAUAGUCCGUACGUUCCCG [8491-94_74]”, the Kd (P = NapdU (all U), 2'-OMe C16, SB18T0.01, 5 mM MgCl2, 37 C) is reported as 0.192 nM.

“ACTCCCCGGUGACUCAAUAGUCCGUACGUUCCCGGUCCGAACGC [8491-94_5]” was tested, and the Kd (all U = NapdU, SB18T0.01, 37C) was 0.0298 nM.

“CGGUGACUCAAUAGUCCGUACGUUCCCG [8491-94_65]” was tested, and the Kd (P = NapdU (all U), 2'-OMe C7, SB18T0.01, 5 mM MgCl2, 37 C) was 0.0316 nM.

For “CGGUGACUCAAUAGUCCGUACGUUCCCG [8491-94_72]”, the Kd (all U = NapdU, 2'-OMe at G14, SB18T0.01, 37C) was 6.17 nM.

“ACTCCGAGCAUUGACUCAAUAGUCCGUACGUUUUACGCGUGAGGA [8491-407_3]” showed a Kd [1] of 0.208 nM.

For “ACTCCUUGACUCGAUAGUCCGUACGUUUGCGGAAUACCAGCUGACGAGGA [8491-400_3]”, the Kd [1] was 1.2 nM.

In the case of “ACTCCUACAAAGCGAUUGGCUCGAUAGUCAGUACGUUUCUCGCUCGAGGA [8491-390_3]”, the Kd [1] is reported as 0.412 nM.

For “ACTCCAUGUCGGCGUUUGACUCAAUAGUCCGUACGUUUGGCCGGGCAGGGGAGGA [8491-405_3]”, the Kd [1] was 0.159 nM.

“CGGUGACUCAAUAGUCCGUATGUUCCCG [8491-94_132]” was tested, and the Kd (all P = NapdU, T = dT, 2'-OMe at 1,2,3,5,7,9,10,13,19,20,22-28, SB18T0.01, 37C) was 12.7 nM.

Sequence “GGGUGACUCAAUAGUCCGUACGUUCCCC [8491-94_127]” has a Kd (all U = NapdU, 2'-OMe at 1,2,3,5,7,9,10,13,19,20,22-28, SB18T0.01, 37C) of 0.045 nM.

“CGGUGACUCAAUAGUCCGUACGUUCCCG [8491-94_78]” gave a Kd (P = NapdU (all U), 2'-OMe A20, SB18T0.01, 5 mM MgCl2, 37 C) of 0.0718 nM.

“CCGGUACUCAAUAGUCCGUACGUUCCCGG [8491-94_34]” gave a Kd (all U = NapdU, C3-spacer replaces G6, SB18T0.01, 37C) of 14.1 nM.

For “CGGUGACUCAAUAGUCCGUACGUUCCCGG [8491-94_29]”, the Kd (all U = NapdU, SB18T0.01, 37C) was 0.0581 nM.

“ACTCCAGACUGUAGUUGACUCCAUAGUCCGUACGUUUACACAUUGGAGGA [8491-189_3]” gave a Kd [1] of 0.0335 nM.

“CGGUGACUCAAUAGUCCGUACGUUCCCG [8491-94_81]” gave a Kd (P = NapdU (all U), 2'-OMe P23, SB18T0.01, 5 mM MgCl2, 37 C) of 0.0243 nM.

For “CCGGUGACUCAAUAGUCCGUCGUUCCCGG [8491-94_45]”, the Kd (all U = NapdU, C3-spacer replaces A21, SB18T0.01, 37C) was 228 nM.

“ACTCCGAGCAUUGACUCAAUAGUCCGUACGUUUUUUUGGGCCGGGGGGGCAGGAGGA [8491-403_3]” showed a Kd (all U in listing = NapdU, printed as 1.53-10, SB18T0.01, 37C) of 0.153 nM.

For CGGUGAUCAAUAGUCGUACGUUCCG [8491-94_100], the Kd (all U = NapdU, 2'-OMe at 1,2,3,5,9,10,13,19,20,22,23,24,26,27,28, C3-spacer replaces C7, C17, C25, SB18T0.01, 37C) was 0.0794 nM.

Sequence “CGGUGACUCAAUAGUCCGUACGUUCCCG [8491-94_77]” has a Kd (P = NapdU (all U), 2'-OMe P19, SB18T0.01, 5 mM MgCl2, 37 C) of 0.0262 nM.

For “CCGGUGACUCAAUAGUCCGUACGUUCCGG [8491-94_49]”, the Kd (all U = NapdU, C3-spacer replaces C27, SB18T0.01, 37C) was 0.266 nM.

Work on “CGGUGACUCAAUAGUCCGUACGUUCCCG [8491-94_70]” yielded a Kd (P = NapdU (all U), 2'-OMe P12, SB18T0.01, 5 mM MgCl2, 37 C) of 0.338 nM.

Sequence “CGGUGACUCAAUAGUCCGUACGUUCCCG [8491-94_96]” has a Kd (all U = NapdU, 2'-OMe at 1,2,3,5,7,9,10,13,19,20,23-28, SB18T0.01, 37C) of 0.0364 nM.

“CCGUGACUCAAUAGUCCGUACGUUCCCGG [8491-94_32]” was tested, and the Kd (all U = NapdU, C3-spacer replaces G3, SB18T0.01, 37C) was 0.78 nM.

In the case of “CGGUGACUCAAUAGUCGUATGUUCCCG [8491-94_133]”, the Kd (all P = NapdU, T = dT, 2'-OMe at 1,2,3,5,7,9,10,13,19,20 and all residues after T21, C3-spacer replaces C17, SB18T0.01, 37C) is reported as 5.06 nM.

“GGGUGACUCAAUAGUCGUACAUUCCCC [8491-94_136]” showed a Kd [2] of 9.1 nM.

“CGGUGACUCAAUAGUCCGUACGUUCCCG [8491-94_88]” showed a Kd (all U = NapdU, 2'-OMe at 1,3,5,7,13,28, SB18T0.01, 37C) of 0.0248 nM.

Sequence “CCGGUGACUAAUAGUCCGUACGUUCCCGG [8491-94_37]” has a Kd (all U = NapdU, C3-spacer replaces C10, SB18T0.01, 37C) of 0.0922 nM.

For “ACTCCCCGGUGACUCAAUAGUCCGUACGUUUGGCCGGGCAGGGGAGGA [8491-395_3]”, the Kd [1] was 3.52 nM.

Work on “ACTCCCCGGUGACUCAAUAGUCCGUACGUUCCCGGUCCGAACGCGGA [8491-94_4]” yielded a Kd (all U = NapdU, SB18T0.01, 37C) of 0.0291 nM.

“CCGGUGACUCAAUAGUCCGUACGUUCCCG [8491-94_51]” was tested, and the Kd (all U = NapdU, C3-spacer replaces G29, SB18T0.01, 37C) was 0.227 nM.

Work on “CGGUGACUCAAUAGUCGUACGUUCCCG [8491-94_58]” yielded a Kd (all U = NapdU, C3-spacer replaces C17, SB18T0.01, 37C) of 0.787 nM.

With “ACTCCGAGCAUUGACUCAAUAGUCCGUACGUUCCCGGUCUGAACGUGGAGGA [8491-406_3]” the Kd [1] was 2.47 nM.

In the case of “CGGUGACUCAAUAGUCCGUACGUUCCCG [8491-94_85]”, the Kd (P = NapdU (all U), 2'-OMe C27, SB18T0.01, 5 mM MgCl2, 37 C) is reported as 0.0524 nM.

Work on “CGGUGACUCAAUAGUCCGUACGUUCCCG [8491-94_63]” yielded a Kd (P = NapdU (all U), 2'-OMe G5, SB18T0.01, 5 mM MgCl2, 37 C) of 0.0268 nM.

Work on “CCGUGACUCAAUAGUCCGUACGUUCCCGG [8491-94_33]” yielded a Kd (all U = NapdU, C3-spacer replaces G4, SB18T0.01, 37C) of 0.245 nM.

Work on “CGGUGACUCAAUAGUCCGUACGUUCCCG [8491-94_67]” yielded a Kd (P = NapdU (all U), 2'-OMe C9, SB18T0.01, 5 mM MgCl2, 37 C) of 0.0699 nM.

Work on “ACTCCUCCCACACGACGAAUUUGACUCAAUAGUCCGUACGUUUUAGAGGA [8491-402_3]” yielded a Kd [1] of 0.0739 nM.

In the case of “ACTCCCCGGUGACUCAAUAGUCCGUACGUUCCCGGUCCGAACGCGGAGGA [8491-94_3]”, the Kd (all U in listing = NapdU, SB18T0.01 (5 mM MgCl2), 37C) is reported as 0.0313 nM.

Work on “ACTCCCCGGUGACUCAAUAGUCCGUACGUUCCCGGTCCGAACGCGGAGGA [8491-94_18]” yielded a Kd [3] of 0.0421 nM.

For “CGGUGACUCAAUAGUCCGUACGUUCCCG [8491-94_84]”, the Kd (P = NapdU (all U), 2'-OMe C26, SB18T0.01, 5 mM MgCl2, 37 C) was 0.0738 nM.

In the case of “CGGUGACUCAAUAGUCCGUACGUUCCCG [8491-94_75]”, the Kd (P = NapdU (all U), 2'-OMe C17, SB18T0.01, 5 mM MgCl2, 37 C) is reported as 0.214 nM.

“CCGGUGCUCAAUAGUCCGUACGUUCCCGG [8491-94_35]” was tested, and the Kd (all U = NapdU, C3-spacer replaces A7, SB18T0.01, 37C) was 5.67 nM.

“CCGGUGACUCAAUAGUCCGUACGUUCCGG [8491-94_50]” showed a Kd (all U = NapdU, C3-spacer replaces C28, SB18T0.01, 37C) of 0.448 nM.

“ACTCCCCGGUGACUCAAUAGUCCGUACGUUCCCGGUCC [8491-94_7]” gave a Kd (all U = NapdU, SB18T0.01, 37C) of 0.0194 nM.

“CCCGGUGACUCAAUAGUCCGUACGUUCCCGGUCCGAACGCGGAGGA [8491-94_22]” showed a Kd (all U = NapdU, SB18T0.01, 37C) of 0.103 nM.

For “CCGGUGACUCAAUAUCCGUACGUUCCCGG [8491-94_41]”, the Kd (all U = NapdU, C3-spacer replaces G15, SB18T0.01, 37C) was 0.598 nM.

“CGGUGACUCAAUAGUCCGUACGUUCCCGGUCCGAACGCGGAGGA [8491-94_9]” gave a Kd (all U = NapdU, SB18T0.01, 37C) of 0.243 nM.

“ACTCCCCGGUGACUCAAUAGUCCGUACGUU [8491-94_21]” was tested, and the Kd (all U = NapdU, SB18T0.01, 37C) was 0.249 nM.

CGGUGACUCAAUAGUCGUACGUUCCG [8491-94_56] showed a Kd (all U = NapdU, C3-spacer replaces C17, C25, SB18T0.01, 37C) of 0.0464 nM.
